Test results as given in paper PMC3519819.

Target: IscS fused with the bait protein (pBT-IscS, pJTU3618) (E. coli), P0A6B7
Experiment: two-hybrid; BacterioMatch II bacterial two-hybrid; IscS on pBT (bait), Dpt proteins on pTRG (target); reporter strain E. coli XL1-Blue MRF' Kan; colonies counted on Selective Screening Medium with 5 mM 3-AT against nonselective medium, 24 h at 37°C
Conditions: remark: other sources report otherwise

Sequence of IscS fused with the bait protein (pBT-IscS, pJTU3618) (E. coli), P0A6B7 (P0A6B7 whole entry, the tested form may be a part): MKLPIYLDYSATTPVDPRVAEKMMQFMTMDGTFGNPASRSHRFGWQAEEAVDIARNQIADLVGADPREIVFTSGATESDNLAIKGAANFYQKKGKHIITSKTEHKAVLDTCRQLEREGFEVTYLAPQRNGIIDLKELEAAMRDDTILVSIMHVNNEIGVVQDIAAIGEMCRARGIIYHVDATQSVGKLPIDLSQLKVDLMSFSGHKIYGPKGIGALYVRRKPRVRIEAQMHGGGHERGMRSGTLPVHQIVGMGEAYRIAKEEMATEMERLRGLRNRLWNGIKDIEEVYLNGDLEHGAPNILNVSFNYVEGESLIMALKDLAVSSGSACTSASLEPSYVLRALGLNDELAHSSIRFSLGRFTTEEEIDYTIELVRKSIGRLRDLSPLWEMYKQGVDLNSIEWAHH

B1: DptC fused with the target protein (pTRG-DptC, pJTU3610), E2D677 1-544 (natural protein)
chain: MSKLVQAYDLAEYEDFINQEQFAGRPLAEYVAEVQRIYCADKRPWVIGYSGGKDSSAVITLVYLALLGLPPEMRSKDVFIVSSDTLVETPVVVDLIKKTMLQIEAGAKRNGLPITQHAVTPKTNETFWVNLLGKGYPAPTRSFRWCTERMKINPVSDFIKDKVSQFDEVIVVLGSRSSESASRAQVIAKHKIDGSRLARHTTLANAFIYTPIDTWDVEDVWKLLRGAFRYAPEDIDEWESPWGGNNRPLWTLYMDSSAQGECPLVIDESTPSCGNSRFGCWTCTVVTKDKAMESLIKNGEEWMSPLLKYRDLLAFTTDPANKDTYRNYKRRTGKVSYQYAKDGEDRSAERKHVPGPYWLKYRQQWLKDLLEIERDLNAQGHTITLITQPELHAIRQEWLKDPNEPDWHDTLPEIYREVYQQDLNWVVDDQSRFDASDADLLAQITQGFDVVPEMVMKLIELETSMEGLSRRQGIFDKLGTILKQDWGSLEEIQQQQATLQKRNDRDIHQDEVEKLEAELQTLQRRIIDAGESSVLIDEENERAH
Work on B1 yielded a surviving cells on 3AT of 2%.
